Experimental data taken from IntAct's records for PubMed 21435037.

B1: Inositol phosphate phosphatase SopB (Salmonella typhimurium), O30916 (parent)
chain: MQIQSFYHSASLKTQEAFKSLQKTLYNGMQILSGQGKAPAKAPDARPEIIVLREPGATWGNYLQHQKASNHSLHNLYNLQRDLLTVAATVLGKQDPVLTSMANQMELAKVKADRPATKQEEAAAKALKKNLIELIAARTQQQDGLPAKEAHRFAAVAFRDAQVKQLNNQPWQTIKNTLTHNGHHYTNTQLPAAEMKIGAKDIFPSAYEGKGVCSWDTKNIHHANNLWMSTVSVHEDGKDKTLFCGIRHGVLSPYHEKDPLLRHVGAENKAKEVLTAALFSKPELLNKALAGEAVSLKLVSVGLLTASNIFGKEGTMVEDQMRAWQSLTQPGKMIHLKIRNKDGDLQTVKIKPDVAAFNVGVNELALKLGFGLKASDSYNAEALHQLLGNDLRPEARPGGWVGEWLAQYPDNYEVVNTLARQIKDIWKNNQHHKDGGEPYKLAQRLAMLAHEIDAVPAWNCKSGKDRTGMMDSEIKREIISLHQTHMLSAPGSLPDSGGQKIFQKVLLNSGNLEIQKQNTGGAGNKVMKNLSPEVLNLSYQKRVGDENIWQSVKGISSLITS

Variants of: B1
Details: with cdc42_human CDC42, P60953
Sequence of cdc42_human CDC42, P60953 (P60953 whole entry, looked up): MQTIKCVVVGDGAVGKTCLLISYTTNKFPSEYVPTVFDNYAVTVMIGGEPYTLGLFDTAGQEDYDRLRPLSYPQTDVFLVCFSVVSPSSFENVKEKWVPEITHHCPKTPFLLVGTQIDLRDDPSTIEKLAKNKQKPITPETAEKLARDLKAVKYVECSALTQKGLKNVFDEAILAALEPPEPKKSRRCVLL

Row | Variant | effect of a mutation on the interaction
1 | L52P | decreasing interaction
2 | L63P;R466A | decreasing interaction
3 | L73P;R466A | decreasing interaction
4 | L84P;R466A | decreasing interaction
5 | L76P;R466A | decreasing interaction

Variants of: B1
Details: with cdc42_human CDC42, P60953
Remark: another data set of the same source

Row | Variant | effect of a mutation on the interaction
6 | L76P | decreasing interaction
7 | L84P | decreasing interaction
8 | L73P | decreasing interaction
9 | L63P | decreasing interaction
